Laboratory results published in patent publication US6479637B1, “Hemoglobin-haptoglobin complexes” (Hemsol Inc., priority 1998, dated 2002).

Columns and labels:
[1] = target: T1, haptoglobin 1-1 (Homo sapiens, UniProt P00738); experiment: Complex formation of modified hemoglobins with haptoglobin 1-1 (size exclusion / anion exchange chromatography); format: binding; settings: THb-PQ mixture with haptoglobin 1-1, room temperature, 21 hours
T1 construct: Hp 1-1 is composed of two α^1β dimers and has a molecular weight of about 98 kDa
T1 sequence (P00738 19-347 isoform P00738-2 limits assumed): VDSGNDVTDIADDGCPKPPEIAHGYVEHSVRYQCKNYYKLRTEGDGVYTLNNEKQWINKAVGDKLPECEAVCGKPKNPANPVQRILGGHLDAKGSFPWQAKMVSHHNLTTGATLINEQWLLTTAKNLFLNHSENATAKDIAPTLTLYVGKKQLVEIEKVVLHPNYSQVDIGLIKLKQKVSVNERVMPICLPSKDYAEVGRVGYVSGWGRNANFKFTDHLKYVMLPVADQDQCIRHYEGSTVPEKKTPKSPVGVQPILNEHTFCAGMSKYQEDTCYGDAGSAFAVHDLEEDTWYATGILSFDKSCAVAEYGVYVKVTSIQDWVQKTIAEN
T1 sequence (P00738 103-347 isoform P00738-2 limits assumed): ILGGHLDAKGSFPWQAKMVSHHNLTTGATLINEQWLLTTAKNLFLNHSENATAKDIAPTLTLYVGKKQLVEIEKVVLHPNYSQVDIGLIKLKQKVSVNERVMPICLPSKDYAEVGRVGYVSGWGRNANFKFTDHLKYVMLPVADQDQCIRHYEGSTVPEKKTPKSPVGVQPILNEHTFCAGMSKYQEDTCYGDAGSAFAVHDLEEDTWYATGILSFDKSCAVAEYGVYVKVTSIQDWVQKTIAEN

[2] = system: plasmid DNA (pCMVbeta); experiment: Gel mobility shift assay of DNA binding; settings: 50 to 1600 ng of protein, 140 ng DNA
Procedure: Gel mobility shift assays were conducted to evaluate the stoichiometry of binding of plasmid DNA (pCMVbeta) to the THb-Kn conjugates. This gel electrophoretic method is based on the observation that the migratory properties of the DNA are altered upon binding protein. Neither proteins nor DNA-protein complexes in which protein constitutes a significant part of their mass enter 1% agarose gels. If mixtures with an increasing THb-Kn to DNA ratio are analyzed, it is observed that the DNA band disappears at and above the ratio that corresponds to the stoichiometry of the complex. For each of the four conjugates and for the THb-K26kDa-Hp complex, solutions containing from 0.4 to 6400 ng of the conjugate (this weight based on the hemoglobin component) in 32 μL of 20 mM HEPES pH 7.3 containing 150 mM NaCl were prepared. […] The samples (15 μL) were analyzed on a 1% agarose gel containing ethidium bromide (0.2 μg/mL). The amount of conjugate which prevented DNA entry into the gel was determined.
FIG. 4A (left) and 4B (right) are depictions of gel mobility shift assays of haptoglobin-hemoglobin-DNA conjugates produced according to Example 4. […] The results for THb-K26kDa are in good agreement with the fluorescence quench assay which indicated 86% of fluorescence decrease at the same THb-K26kDa to DNA ratio. […]

[3] = target: T2, rat haptoglobin (Rattus norvegicus, UniProt P06866); experiment: Binding of modified human Hb ([3H]-NEM-Hb) to rat haptoglobin in plasma (SEC)
T2 construct: combined with rat serum containing haptoglobin; from tissue; host or cells: rat serum
T2 sequence (P06866 19-101 limits assumed): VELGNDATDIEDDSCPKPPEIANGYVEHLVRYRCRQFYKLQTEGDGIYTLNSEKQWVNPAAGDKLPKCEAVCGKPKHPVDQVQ
T2 sequence (P06866 103-347 limits assumed): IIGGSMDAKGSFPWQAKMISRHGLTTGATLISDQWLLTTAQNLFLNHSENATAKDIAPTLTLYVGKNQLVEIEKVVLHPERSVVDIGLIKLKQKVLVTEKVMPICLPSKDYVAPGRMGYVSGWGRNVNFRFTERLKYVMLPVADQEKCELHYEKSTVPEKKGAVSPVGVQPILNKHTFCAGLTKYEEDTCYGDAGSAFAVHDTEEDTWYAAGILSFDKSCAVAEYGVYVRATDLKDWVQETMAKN
Procedure: 1 mCi of ^3H-N-ethylmaleimide ([^3H]-NEM) in pentane was evaporated in 0.5 mL phosphate buffer, and 25 mg of Hb in 1 mL buffer was added giving a final NEM:Hb ratio of 0.06:1, or 37 μCi/mg Hb. RP HPLC analysis after 24 hours at 4° C. indicated incorporation of the majority of the radiolabel into a modified beta peak. After 47 hr, a 15-fold excess (over βCys93 thiol) of non-radiolabeled NEM was added. Salts and unbound NEM were removed by gel filtration, and the final concentration adjusted to 10.2 mg Hb/mL. A small portion of this material (^3H-NEM-Hb) was then combined with rat serum containing haptoglobin to determine if all radiolabeled components bound to Hp. The Hb-binding capacity of the rat serum was adjusted to […] Hb/mL serum. 0.5 and 2.0 equivalents of ^3H-NEM-Hb, based on Hb-binding capacity, were combined with serum and analyzed -by size exclusion chromatography eluted under dissociating, non-denaturing conditions using 0.5 M MgCl2, 25 mM Tris pH 7.4 (FIG. 15). In the ^3H-NEM-Hb preparation, all radioactivity was associated with a 32 kDa peak. […] 7.3% of the radioactivity combining with plasma components appears in a high MW peak at 22 minutes.

[4] = Biodistribution of modified Hb and haptoglobin complexes in rat; settings: for AUC Liver / AUC Plasma: dose = ug Hb/g body weight, no extrapolation to time zero
Procedure: The ability of Hp to target modified Hb to the liver was measured in a radioisotope biodistribution study. Two test articles were prepared from purified human HbA0 modified with tritium-labeled N-ethylmaleimide ([^3H]-NEM-Hb): [^3H]-NEM-Hb alone in Ringer's lactate, and [^3H]-NEM-Hb complexed to a slight excess of rat haptoglobin in rat plasma. Three treatment groups were analyzed; (A) normal rats received the modified Hb-haptoglobin complex in plasma, (B) normal rats received the modified Hb only (approximately twice the Hb-binding capacity of the rat), and (C) haptoglobin-depleted rats received the modified Hb only. Approximately 3 mg of Hb were administered to conscious Sprague-Dawley rats in each case. Liver and plasma samples were collected at 30, 60 and 120 minutes post-administration and radioactivity counted after solubilization and quenching.

[5] = 30 minutes, haptoglobin-depleted rats (group C)
[6] = 30 minutes, normal rats (groups A, B)
[7] = haptoglobin-depleted rats (group C)

reacted with Hp (anion exchange chromatography) [1] | DNA binding (change in DNA migration) [2] | Substance | capability of all components to bind rat haptoglobin in plasma [3] | radioactivity appearing in the Hb-haptoglobin peak ([3]; 0.5 eq. based on Hb-binding capacity of rat serum, SEC) | binding state at haptoglobin saturation ([3]; 2.0 eq. based on Hb-binding capacity of rat serum, SEC) | radioactivity combining with plasma components appearing in high MW peak at 22 minutes ([3]; rat serum, SEC) [%] | dose in the plasma and liver compartments relative to groups A and B [4, 5] | total dose in the liver [4, 5] [%] | dose in the plasma and liver compartments [4, 6] [%] | total dose in the liver [4, 6] | liver to plasma concentration/dose ratio ([4]; 120 minutes, normal rats (groups A, B)) | liver content relative to group C ([4]; 120 minutes, normal rats vs haptoglobin-depleted rats given modified Hb only) [fold] | AUC Liver [4, 7] [ug Hb · min/g/dose] | AUC Plasma [4, 7] [ug Hb · min/mL/dose] | liver uptake (area under distribution curve) relative to group C ([4]; normal rats (groups A, B) vs haptoglobin-depleted rats) | AUC Liver ([4]; normal rats (groups A, B)) [ug Hb · min/g/dose] | AUC Plasma ([4]; normal rats (groups A, B)) [ug Hb · min/mL/dose]
all |  | unmodified hemoglobin: unmodified (uncross-linked) hemoglobin remaining in the THb-PQ product mixture |  |  |  |  |  |  |  |  |  |  |  |  |  |  | 
74% | does not bind DNA | THb: TTDS (trimesoyl tris(3,5-dibromosalicylate)) cross-linked hemoglobin, hydrolyzed, without attached agent [reference compound] |  |  |  |  |  |  |  |  |  |  |  |  |  |  | 
 |  | [^3H]-NEM-Hb: purified human HbA0 modified with tritium-labeled N-ethylmaleimide; given alone to groups B and C | capable of binding rat haptoglobin in plasma | all radioactivity appeared in the Hb-haptoglobin peak | haptoglobin is saturated and excess ^3H-NEM-Hb remains unbound | 7.3 | roughly half that amount | 11 | 60 | approximately 20% | approximately 4 times | 2 | 234.0 | 163.0 | approximately twice that of group C | 510.4 | 284.2
